According to paper PMC9922282, “Small molecule inhibitors of 15-PGDH exploit a physiologic induced-fit closing system” (Nature Communications, 2023):
Positions count from the first letter of the chain named. Names and notes keep the numbering of the source.

T1: 15-PGDH (Homo sapiens, UniProt P15428)
T1 construct: gene HPGD; recombinant human 15-PGDH with C-terminal TEV-cleavable 6xHis tag, homodimer
T1 sequence (P15428 1-256): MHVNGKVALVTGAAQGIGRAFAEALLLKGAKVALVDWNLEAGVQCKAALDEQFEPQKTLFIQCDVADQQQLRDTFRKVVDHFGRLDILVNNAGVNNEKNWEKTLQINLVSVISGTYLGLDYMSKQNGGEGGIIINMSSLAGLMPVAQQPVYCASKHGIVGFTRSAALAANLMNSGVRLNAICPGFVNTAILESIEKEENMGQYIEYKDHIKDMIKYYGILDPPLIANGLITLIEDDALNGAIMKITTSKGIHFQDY

B1: 15-PGDH (Homo sapiens) (protein)
chain: MHVNGKVALVTGAAQGIGRAFAEALLLKGAKVALVDWNLEAGVQCKAALDEQFEPQKTLFIQCDVADQQQLRDTFRKVVDHFGRLDILVNNAGVNNEKNWEKTLQINLVSVISGTYLGLDYMSKQNGGEGGIIINMSSLAGLMPVAQQPVYCASKHGIVGFTRSAALAANLMNSGVRLNAICPGFVNTAILESIEKEENMGQYIEYKDHIKDMIKYYGILDPPLIANGLITLIEDDALNGAIMKITTSKGIHFQDYDTTPFQAKTQ
notes: recombinant human 15-PGDH with C-terminal TEV-cleavable 6xHis tag
B2: 15-PGDH (Homo sapiens; Y217A) (protein)
chain: B1 chain with Y217A
notes: as for B1

Experiments:
15-PGDH = molecular target: T1, 15-PGDH; assay: cryo-EM structure of the 15-PGDH-NADH complex ([…] Å); thermal shift; format: binding
[1] = substrate: CCCCC[C@H](O)/C=C/[C@H]1[C@H](O)CC(=O)[C@@H]1C/C=C\CCCC(=O)O; assay: Michaelis-Menten kinetics of PGE2 oxidation (Km); format: biochemical, Homo sapiens; settings: NAD+ active site

Molecule | cryo-EM structure of the 15-PGDH-NADH complex (3.3 Å); thermal shift (15-PGDH) | Km [1] [µM]
NC(=O)C1=CN([C@@H]2O[C@H](COP(=O)(O)OP(=O)(O)OC[C@H]3O[C@@H](n4cnc5c(N)ncnc54)[C@H](O)[C@@H]3O)[C@@H](O)[C@H]2O)C=CC1 [NADH] | we employed cryo-EM to solve the structure of the 15-PGDH-NADH complex in the absence of inhibitor | –
B1 | – | 2.2
B2 | – | 11
